Here are results for 10 molecules from patent US20210024635A1 (IMMATICS BIOTECHNOLOGIES, published 2021).

Substitutions are numbered along the chain they refer to.

Test [1] deals with T1, RMF/HLA complex on antigen-positive cancer cells (SET2, BV173) (human).
T1 construct: whole, on cells; Naturally presented complex on SET2 (DSMZ ACC 608) and BV173 (DSMZ ACC 20) cells; also called RMF/HLA complex on cells; WT1/HLA-expressing cells
Briefly: flow cytometry on SET2 cells, IgG; '++' = EC50 below 10 nM, '+' = EC50 of more than 10 nM. As to the method: (§1) SET2 cells (DSMZ No. ACC 608) and BV173 cells (DSMZ No. ACC 20) were used as antigen-positive cancer cells (see Dao et al.; 2013). Binding was measured by flow cytometry utilizing a PE-conjugated goat anti-human IgG secondary antibody, and EC50 values were determined.
(§2) Example 4 was repeated with the antibodies of the present disclosure, i.e. binding to RNF/HLA-positive SET2 cells (DSMZ No. ACC 608) and BV173 cells (DSMZ No. ACC 20) was tested by flow cytometry. EC50 values were determined.

The target of test [2] is T2, WT1 RMF peptide/HLA-A0201 complex (isolated, recombinant, biotinylated) (human).
T2 construct: also called RMF/HLA; RMF/HLA complex
Nature of the test: Octet (BLI), IgG, apparent (bivalent) affinity; dissociation too slow for the limits of the system. As for the experimental part: The apparent affinity of the binders Aali and Refmab #13 was measured for the RMF/HLA antigen with an Octet system. […] The binding of Aali was characterized by a very slow dissociation rate, which exceeded the specification limits that were set in the system.

The target in test [3] is T1, RMF/HLA complex on antigen-positive …. Briefly: flow cytometry on BV173 cells, IgG; '++' = EC50 below 10 nM, '+' = EC50 of more than 10 nM. As to the method: as §1, §2
The target in test [4] is T3, PIGQ peptide/HLA-A0201 complex (human, biotinylated (site not stated)).
T3 construct: Negative control / counter target complex; also called PIGQ/HLA; PIGQ/HLA complex
Nature of the test: ELISA as in Example 3; biotinylated peptide/HLA complex coated at 50 nM on Neutravidin plates, IgG titrated, AP-conjugated goat anti-human IgG, RFU.

Test [5] deals with T2, WT1 RMF peptide/HLA-A0201 complex …. Briefly: ELISA on Neutravidin plates, IgG.
Test [6] has the same target. Briefly: ELISA on Neutravidin plates, IgG; '++' = EC50 below 10 nM, '+' = EC50 of more than 10 nM.
Test [7] shares this target. Briefly: ELISA as in Example 3; biotinylated peptide/HLA complex coated at 50 nM on Neutravidin plates, IgG titrated, AP-conjugated goat anti-human IgG, RFU.
The target in test [8] is T3, PIGQ peptide/HLA-A0201 complex. Nature of the test: ELISA on Neutravidin plates, Fab; '---' = no binding.
For test [9], the target named is T2, WT1 RMF peptide/HLA-A0201 complex …. Briefly: Octet (BLI), Fab, antigen immobilized to Streptavidin. As to the method: Affinities of the Fab fragments of binders Aali and Refmab #13 for the antigen RMF/HLA were also measured with an Octet system using the antigen immobilized to Streptavidin.
Test [10] has the same target. Nature of the test: ELISA on Neutravidin plates, Fab; '++' = EC50 below 10 nM, '+' = EC50 of more than 10 nM.
For test [11] the target is unchanged. Briefly: ELISA on Neutravidin plates, Fab; EC50 compared with the best reference Fab (not named). As to the method:
The binders were subjected to an in-depth characterization. They were directly compared to the antibodies of the prior art in an ELISA assay using Neutravidin plates as described in Example 3. For selected reference antibodies and binders of the present invention, the EC50 were determined.
Furthermore, none of the binders of the present invention show any binding to the counter targets, in particular no binding to the PIGQ/HLA complex.

In test [12] the target is T4, WT1 RMF peptide/HLA-A0201 complex (isolated, recombinant, biotinylated) (human). Briefly: ELISA on Neutravidin plates, IgG.
The target of test [13] is T4, WT1 RMF peptide/HLA-A0201 complex …. Nature of the test: ELISA on Neutravidin plates, IgG; '++' = EC50 below 10 nM, '+' = EC50 of more than 10 nM.
For test [14] the target is unchanged. Briefly: ELISA as in Example 3; biotinylated peptide/HLA complex coated at 50 nM on Neutravidin plates, IgG titrated, AP-conjugated goat anti-human IgG, RFU.

B1: Aali (IgG1) (antibody, V domains shown)
VH: QVQLVESGGGLVKPGGSLRLSCAASGFTFSDHYISWIRQAPGKGLEWVSYISSSGSTTYYAESVKGRFTISRDNAKNSLYLQMNSLRAEDTAVYYCARTYAYRYDFDLWGQGTLVTVSS
VL: QSVLTQPPSVSGAPGQRVTISCTGSSSNIGAGYDVHWYQQLPGTAPKLLIYGNSNRPSGVPDRFSGSKSGTSASLAITGLQAEDEADYYCQTWVHSYSTPVFGGGTKLTVLG
For B1, the EC50 in test [1] was less than 10 nM; in [3], greater than 10 nM; in [5] it was less than 1 nM; in [6], less than 10 nM. Also, the Kd in [2] is less than 0.5 nM. For the same molecule, in test [4], the binding result is recorded as “no binding”. In addition, the “EC50 (read off the curve)” value in test [7] is roughly 0.5 nM.

B2: Aali (Fab) (Fab, V domains shown)
VH: B1 VH
VL: B1 VL
notes: Tested in monovalent Fab format; also called Aali Fab fragment
Take B2: the binding result in test [8] is recorded as “no binding”. In [9], the Kd is 66 nM. Besides, the EC50 in [10] was less than 10 nM. Moreover, the “fold better EC50 than the best binder of the prior art” value (“fold better EC50 than the best binder” below) in [11] is no less than 3.3 fold.

B3: Cyprus (IgG1) (antibody, V domains shown)
VH: QVQLVESGGGLVKPGGSLRLSCAASGFTFSDYYMSWIRQAPGKGLEWVSYISSSGSTIYYADSVKGRFTISRDNAKNSLYLQMNSLRAEDTAVYYCARDGLRYFYGFDYWGQGTLVTVSS
VL: QSVLTQPPSVSAAPGQKVTISCSGSSSNIGNNYVSWYQQLPGTAPKLLIYDNNKRPSGIPDRFSGSKSGTSATLGITGLQTEDEADYYCQAWVHYSLVHWVFGGGTKLTVLG
B3: the EC50 was greater than 10 nM in [1], greater than 10 nM in test [3], less than 1 nM in test [5] and less than 10 nM in test [6]. Moreover, the binding result in [4] is on record as “no binding”. Also, the concentration for a half-maximal effect (EC50 (read off the curve)) in test [7] was roughly 0.3 nM.

B4: Daniel (IgG1) (antibody, V domains shown)
VH: QVQLVQSGAEVKKPGASVKVSCKASGYTFTSYYMHWVRQAPGQGLEWMGIINPSGGSTSYAQKFQGRVTMTRDTSTSTVYMELSSLRSEDTAVYYCAREGYTPGGSYTFDIWGQGTLVTVSS
VL: B3 VL with Q90G, A91S, V93D, H94G, Y95F, S96V, L97S, V98S, H99Y, W100S
With B4, the concentration for a half-maximal effect (EC50) in [1] was less than 10 nM; in [3], greater than 10 nM; in test [5], less than 1 nM; in test [6], less than 10 nM. Also, in test [4], the binding result is “no binding”. In addition, the “EC50 (read off the curve)” value in test [7] is roughly 0.3 nM.

B5: Cyprus (Fab) (Fab, V domains shown)
VH: B3 VH
VL: B3 VL
notes: Tested in monovalent Fab format
As for B5, the binding result in [8] is listed as “no binding”. For the same molecule, the half-maximal effective concentration (EC50) in test [10] was less than 10 nM. Further, the “fold better EC50 than the best binder” value in [11] was no less than 3.3 fold.

B6: Fiwi (Fab) (Fab, V domains shown)
VH: EVQLVESGGGLVKPGGSLRLSCAASGFTFSNYWISWVRQAPGKGLEWVGRIKSKTYGGTTDYAEPVKGRFTISRDDSKNTLYLQMNSLKTEDTAVYYCARGRYPELGYFDLWGQGTLVTVSS
VL: B3 VL with Q90G, V93D, H94S, S96L, L97S, H99S, W100F
notes: as for B5
As to B6, the binding result in [8] is reported as “no binding”. Moreover, the concentration for a half-maximal effect (EC50) in test [10] was greater than 10 nM. In test [11], the “fold better EC50 than the best binder” value was no less than 3.3 fold.

B7: Daniel (Fab) (Fab, V domains shown)
VH: B4 VH
VL: B3 VL with Q90G, A91S, V93D, H94G, Y95F, S96V, L97S, V98S, H99Y, W100S
notes: as for B5
With B7, in test [8], the binding result was “no binding”. In addition, the concentration for a half-maximal effect (EC50) in [10] is less than 10 nM. Further, the “fold better EC50 than the best binder” value in test [11] was no less than 3.3 fold.

B8: Fiwi (IgG1) (antibody, V domains shown)
VH: B6 VH
VL: B3 VL with Q90G, V93D, H94S, S96L, L97S, H99S, W100F
For B8, the EC50 was greater than 10 nM in [1], greater than 10 nM in test [3], less than 1 nM in test [5] and less than 10 nM in test [6]. The binding result in test [4] was “no binding”. The concentration giving a half-maximal response (EC50 (read off the curve)) in test [7] was roughly 0.3 nM.

B9: Bibi (IgG1) (antibody, V domains shown)
VH: EVQLVESGGGLVKPGGSLRLSCAASGFTFSSYSMNWVRQAPGKGLEWVSSISSSSSYIYYADSVKGRFTISRDNAKNSLYLQMNSLRAEDTAVYYCARTESVWHLGFDIWGQGTLVTVSS
VL: DIQMTQSPSSVSASVGDRVTITCRASQGISSWLAWYQQKPGKAPKLLIYAASSLQSGVPSRFSGSGSGTDFTLTISSLQPEDFATYYCQQNHKYPITFGQGTKVEIKR
Consider B9, for which the EC50 in test [1] was greater than 10 nM; in [3], greater than 10 nM; in test [12] it was less than 1 nM; in test [13], less than 10 nM. In addition, in [4], the binding result is recorded as “no binding”. In [14], the 50% effective concentration (EC50 (read off the curve)) was roughly 0.3 nM.

B10: Elfu (IgG1) (antibody, V domains shown)
VH: EVQLVQSGAEVKKPGESLKISCKGSGYSFTSYWISWVRQMPGKGLEWMGIIYPGTSYTRYSPSFQGQVTISADKSISTAYLQWSSLKASDTAMYYCARGYHLPYFDYWGQGTLVTVSS
VL: QSVLTQPPSVSGAPGQRVTISCTGSSSNIGAGYDVHWYQQLPGTAPKLLIYGNSNRPSGVPDRFSGSKSGTSASLAITGLQAEDEADYYCQAYASPTRVVFGGGTKLTVLG
In the case of B10, the EC50 in [1] is greater than 10 nM; in [3], greater than 10 nM; in test [12], less than 1 nM; in test [13], less than 10 nM. In [4], the binding result is on record as “no binding”. Also, the “EC50 (read off the curve)” value in [14] was roughly 0.3 nM.
